According to the supplement of paper PMC10201428:
± gives the standard deviation of the averaged measurements.

The sequences below were run on VchCAST RNA-guided transposition machinery (E. coli BL21(DE3) host, lacZ target) (assay: relative integration efficiency (T-LR orientation) vs wild-type transposon end (log2 (normalized fold change)); transposon end mutated: right end (5 bp flank + 75 bp right end); higher = more efficient transposition).
How it was run: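 Barcode abundances in input plasmids and in genomic integration junctions were obtained by PCR amplification and Illumina sequencing. These came from E. coli BL21(DE3) co-transformed with a T7-driven effector plasmid and a pUC57 donor carrying 1549 left-end or 1849 right-end transposon variants, then plated with 0.1 mM IPTG at 37°C for 18 h. Relative integration efficiency is the output/input fold change, normalised to reference barcodes and log-transformed.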

Point of comparison: “ACATTTGTTGATACACCCATAAATTGATAATTACAACCATAAAGTGATATTTATCACACCCATAAATTGATAATTACTCTGATCATAGTCAGACCAACATTGCTACGACCCGTATTCGCACCGACAC”, “relative integration efficiency (log2)” value -0.96 ± 0.16. Against it:
- ACATTTGTTGATACAACCATAAAATGATAATTACACCCATAAATTGATAATTATCACAAACATAAATTGATATTGCCTCTGATCATAGTCAGACCAACATTGCTACGACCCGTATTCGCACCGACAC — higher, 0.898 ± 0.13
- ACATTTGTGGATACAACCATAAAATGATAATTACACCCATAAATTGATCATTATCACCCCCAATTTAACTATAACGCTCTGATCATAGTCAGACCAACATTGCTACGACCCGTATTCGCACCGACAC — higher, 1.99 ± 0.056
- ACATTTGTTGATACAACCATAAAATGATAATTACACCCAATAATTGATAATTATCACACCCATAAATTGATATTGCCTCTGATCATAGTCAGACCAACATTGCTACGACCCGTATTCGCACCGACAC — higher, -0.381 ± 0.18
- ACATTTGTTGATACAACCATAAAATGATAATTACTCTGATCATAGTCAGACCAACATTGCTACGACCCGTATTCGCACCGACACAACGACTATATTTATGGGTCACCCATAAATTGATAATTATCAG — higher, 1.36 ± 0.37
- ACATTTGTTGATACAACCATAAAATGATCATTACACCCATCAATTGATAATTATCCCACCCCATTTAACTATAACGCTCTGATCATAGTCAGACCAACATTGCTACGACCCGTATTCGCACCGACAC — higher, 1.04 ± 0.071
- ACATTTGTCGATACAACCATAAAACGATAATTACACCCATAAATGGATAATTATCACACCCAATTTAACTATAACGCTCTGATCATAGTCAGACCAACATTGCTACGACCCGTATTCGCACCGACAC — higher, 1.85 ± 0.05
- AACTTTGTTGATACAACCATAAAATGATAATTACACCCATAAATTGATAATTATCACACCCATAAATTGATATTGCCTCTGATCATAGTCAGACCAACATTGCTACGACCCGTATTCGCACCGACAC — higher, 0.0855 ± 0.25
- ACATTTGTTGATACAACCATATATTGATATCTCCACCCATAAATTGATATTGCTCAGTGGGTATTTAACTATAACGCTCTGATCATAGTCAGACCAACATTGCTACGACCCGTATTCGCACCGACAC — higher, 2.32 ± 0.041
- ACATTTCTTGATACAACCATAAAATGATAATTACACCCATAAATGGATCATTATCACACCCAATTTAACTATAACGCTCTGATCATAGTCAGACCAACATTGCTACGACCCGTATTCGCACCGACAC — higher, 0.00332 ± 0.054
- ACATTTGTGGATACAACCATAAAACGATAATTACACCCATAAATGGATAATTATCACACCCAATTTAACTATAACGCTCTGATCATAGTCAGACCAACATTGCTACGACCCGTATTCGCACCGACAC — higher, 1.3 ± 0.17
- ACATTTGTTGATACAACCATCCCCTGATAATTACACCCATAAATTGATAATTATCACACCCATAAATTGATATTGCCTCTGATCATAGTCAGACCAACATTGCTACGACCCGTATTCGCACCGACAC — lower, -1.78 ± 0.023
- ACATTTGTTGATATGCAACCATAAAATGATAATTACACCCATAAATTGATAATTATCACACCCATAAATTGATATTGCCTCTGATCATAGTCAGACCAACATTGCTACGACCCGTATTCGCACCGAC — lower, -7.72 ± 1.2
- ACATTTGTTGATACAACCATAAAATCATCATTACCCCCATCAATTGATAATTATCACACCCAATTTAACTATAACGCTCTGATCATAGTCAGACCAACATTGCTACGACCCGTATTCGCACCGACAC — within error, -1.24 ± 0.5
- ACATTTGTTGATACAACCATAAAATGATAATTACACCCATAAATGTCGAATTATCACACCCATAAATTGATATTGCCTCTGATCATAGTCAGACCAACATTGCTACGACCCGTATTCGCACCGACAC — lower, -2.54 ± 0.58
- ACATTTGTTGATACAACCATAAAATGATAATTACACCCATAAATTGATAATTATCACACCCATAAATTGATATTGCCTCTGATAACTTCGTATAATGTATACTATACGAAGTTATTCGCACCGACAC — higher, 1.63 ± 0.07
- ACATTTGTTGATACACCCATAAATTGATATTGCCACCCATAAATTGATATTGCTCAGTGGGTATTTAACTATAACGCTCTGATCATAGTCAGACCAACATTGCTACGACCCGTATTCGCACCGACAC — higher, 2.19 ± 0.12
- ACATTTGCTGATAGAACCATATAATGATAATAACACCCATAAAATGATAATTATCACACCCAATTTAACTATAACGCTCTGATCATAGTCAGACCAACATTGCTACGACCCGTATTCGCACCGACAC — lower, -1.38 ± 0.21
- ACATTTGTCGATACAACCATAAAACGATAATTACACCCATAAATTCATCATTATCACACCCAATTTAACTATAACGCTCTGATCATAGTCAGACCAACATTGCTACGACCCGTATTCGCACCGACAC — higher, 1.48 ± 0.17
- ACATTTGTCGATACAACCATAAAATGATAATTACCACCCCTAAATTGATAATTATCACACCCATTTAACTATAACGCTCTGATCATAGTCAGACCAACATTGCTACGACCCGTATTCGCACCGACAC — higher, -0.156 ± 0.26
- ACATTTGTTGATACAACCATATATTGATATCTCCAACCATAAAGTGATATTTATCACAACCATAAAGTGATATTTACTCTGATCATAGTCAGACCAACATTGCTACGACCCGTATTCGCACCGACAC — higher, -0.451 ± 0.11
- ACATTTGTTGATACAACCATAAAAGGATCATTACCCCCATAAATTGATAATTATCACACCCCATTTAACTATAACGCTCTGATCATAGTCAGACCAACATTGCTACGACCCGTATTCGCACCGACAC — higher, 1.16 ± 0.12
- ACATTTGTTGATACAACCATAAAATGATAATTACAACCATATATTGATATCTCTCAGTGGGTATTTAACTATAACGCTCTGATCATAGTCAGACCAACATTGCTACGACCCGTATTCGCACCGACAC — higher, 3.01 ± 0.18
- ACATTTGTTGATACAACCATAAGTTGATATTTTCAACCATATATTGATATCTCTCAGTGGGTATTTAACTATAACGCTCTGATCATAGTCAGACCAACATTGCTACGACCCGTATTCGCACCGACAC — higher, 2.4 ± 0.039
- ACATTTGTTGATACAACCATAAAATGATAATTACACCCATAAATTGATATTGCTCAGTGGGTATTTAACTATAACGCTCTGATCATAGTCAGACCAACATTGCTACGACCCGTATTCGCACCGACAC — higher, 2.58 ± 0.34
- ACATTTGTTGATACAACCATAAAATGATAATTACCCCCATAAATTGATAATTATCCCACCCCATTTAACTATAACGCTCTGATCATAGTCAGACCAACATTGCTACGACCCGTATTCGCACCGACAC — higher, 1.82 ± 0.11
- ACATTTGTTGATACAAACATAAAATGATAATTACACACATAAATTGATAATTATCACACACATAAATTGATATTGCCTCTGATCATAGTCAGACCAACATTGCTACGACCCGTATTCGCACCGACAC — higher, -0.182 ± 0.14
- ACATTTGTTGATACAACCATAAAATGATAATTAATAATTATTTATAATCAGCAACTTAACCACAAAACACCCATAAATTGATAATTAACAACACCCATAAATTGATATTGCCTCTGATCATAGTCAG — within 0.2 log units, -1.12 ± 0.49
- ACATTTGTTGATACAACCATAAAATGATAATTACTCTGATCATAGTCAGACCAACATTGCTACCACCCATAAATTGATAATTATCACACCCATAAATTGATATTGCGACCCGTATTCGCACCGACAC — higher, -0.553 ± 0.016
- ACATTTGTTGATACAACCATAAAATGATAATTACACCCATAAATTGATAATTATCACACAAATAAATTGATATTGCCTCTGATCATAGTCAGACCAACATTGCTACGACCCGTATTCGCACCGACAC — higher, 2.06 ± 0.028
- ACATTTGTTGATACTACCATATAATGATAATAACACCCATAAAATGATAATTATCACACCCAATTTAACTATAACGCTCTGATCATAGTCAGACCAACATTGCTACGACCCGTATTCGCACCGACAC — higher, 1.9 ± 0.11
- ACATTTGTTGATACAACCATAAAATGATAATTACACCCATAAATTGCGCCGGCGACACAAACGCCCGGTCGCGGTAAGAGGATCATAGTCAGACCAACATTGCTACGACCCGTATTCGCACCGACAC — higher, 1.62 ± 0.053
